Experimental data as given in paper PMC8616692.

Target: 3CLpro (chymotrypsin-like cysteine protease, nsp5) of SARS-CoV-2, wild type (SARS-CoV-2)
Assay: SEC

3CLpro (chymotrypsin-like cysteine protease, nsp5) of SARS-CoV-2, wild type (enzyme)
stoichiometry N: 2
